Laboratory results from article PMC11940719, “Assembly Formation of P65 Protein, Featured by an Intrinsically Disordered Region Involved in Gliding Machinery of Mycoplasma pneumoniae” (Biomolecules, 2025).
Like-named read-outs stand apart in the source and are kept apart here.

Columns and labels:
[1] = target: P65 fragment C (tryptic fragment of region II) (Mycoplasma pneumoniae (strain M129-B7)); test: AUC; sedimentation velocity in 150 mM NaCl, 20 mM Tris-HCl (pH 8.0); absorbance scans at 10-minute intervals; C(s) distribution (SEDFIT)
[2] = target: the molecule itself; test: as above
[3] = target: the molecule itself; test: as above; remark: listed apart in the source
[4] = target: the molecule itself; test: negative staining electron microscopy; proteins at 40 µg/mL stained with 2% uranyl acetate on carbon-coated grids, 80 kV

P65 fragment C (tryptic fragment of region II) (domain or fragment)
stoichiometry N [1]: 3

B1: full-length P65 protein of Mycoplasma pneumoniae (natural protein)
chain: MDINKPGWNQSDQQATAYDPNQQQYYGDGSTYYDPDQAVDPNQAYYPDPNTYPDAAAYYGYGQDGQAYPQDYAQDPNQAYYADPNAYQDPNAYTDPNAYVDPNAYQDPNAYVDPNNYTDPNAYYGYGQDGQAYPQDYAQDPNQAYYADPNAYQDPNAYTDPYYVTSTDPNAYYGQVDNVPALEASDLAYEVTPQEQAAEQELFSEPETKVIREIHEFPFEKIRSYFQTDFDSYNSRLTQLKDKLDNAIFSMRKAIDTVKENSANLQIMKQNFERQLKEQQTQRLTSNTDAEKIGAKINQLEERMQRLSRTMESVEWTKKEPRQEQFDPRFVDPRNFNNYVNNTDTMMSMFEKVLMMNLLRSTTPVQPPVQYFTPQPLTASPRPVYEEPISASFRRRGYRGDEFYE
notes: P65 protein of Mycoplasma pneumoniae strain M129-B7, p65 gene (AGC04228), codon-optimised, in pET-15b (NdeI, BamHI); 405 residues; Forms a multimer of more than 60 subunits (about 3.10 x 10^6 Da) by analytical ultracentrifugation; The printed mass of 49,203 Da probably includes the tag peptide; also called Whole
stoichiometry N [2]: > 60

B2: P65 fragment D (regions I and II, residues 1-320) (domain or fragment)
chain: MDINKPGWNQSDQQATAYDPNQQQYYGDGSTYYDPDQAVDPNQAYYPDPNTYPDAAAYYGYGQDGQAYPQDYAQDPNQAYYADPNAYQDPNAYTDPNAYVDPNAYQDPNAYVDPNNYTDPNAYYGYGQDGQAYPQDYAQDPNQAYYADPNAYQDPNAYTDPYYVTSTDPNAYYGQVDNVPALEASDLAYEVTPQEQAAEQELFSEPETKVIREIHEFPFEKIRSYFQTDFDSYNSRLTQLKDKLDNAIFSMRKAIDTVKENSANLQIMKQNFERQLKEQQTQRLTSNTDAEKIGAKINQLEERMQRLSRTMESVEWTKKE
notes: P65 protein of Mycoplasma pneumoniae strain M129-B7 (AGC04228), residues 1-320 (regions I and II); No cleavage of the tag is described; The printed theoretical mass of 39,080 Da probably includes the tag peptide; source: E. coli BL21(DE3), soluble fraction, purified (HisTrap HP, size exclusion chromatography)
stoichiometry N [3]: 3

B3: P65 fragment B (residues 185-405) (domain or fragment)
chain: SDLAYEVTPQEQAAEQELFSEPETKVIREIHEFPFEKIRSYFQTDFDSYNSRLTQLKDKLDNAIFSMRKAIDTVKENSANLQIMKQNFERQLKEQQTQRLTSNTDAEKIGAKINQLEERMQRLSRTMESVEWTKKEPRQEQFDPRFVDPRNFNNYVNNTDTMMSMFEKVLMMNLLRSTTPVQPPVQYFTPQPLTASPRPVYEEPISASFRRRGYRGDEFYE
notes: P65 protein of Mycoplasma pneumoniae strain M129-B7 (AGC04228), residues 185-405 by mass spectrometry (26.3 kDa; theoretical 26,279 Da); peptide mass fingerprinting covers at least residues 212-405; source: the digest containing fragment B was used
binding result [4]: binds
